{"source": "patent US6750057", "key": {"[1]": {"test_system": "Native MBP [MBP: P0AEX9]"}, "[2]": {"test_system": "T1, MBP-XB3", "T1 sequence": "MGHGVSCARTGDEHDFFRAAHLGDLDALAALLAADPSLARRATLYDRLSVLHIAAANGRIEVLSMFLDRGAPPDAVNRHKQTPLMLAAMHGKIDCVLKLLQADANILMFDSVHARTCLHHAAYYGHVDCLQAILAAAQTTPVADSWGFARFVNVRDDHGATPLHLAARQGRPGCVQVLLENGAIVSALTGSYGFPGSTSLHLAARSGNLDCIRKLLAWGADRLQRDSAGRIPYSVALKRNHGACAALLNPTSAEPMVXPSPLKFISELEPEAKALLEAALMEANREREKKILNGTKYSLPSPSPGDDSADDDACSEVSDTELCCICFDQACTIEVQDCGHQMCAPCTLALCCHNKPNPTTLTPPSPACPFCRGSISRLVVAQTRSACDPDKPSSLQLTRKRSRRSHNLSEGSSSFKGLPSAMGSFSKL"}}, "data": [{"substance": "GST-XA21", "values": [{"measurement": "transphosphorylation assay with [gamma-32P]ATP", "setting": "[1]", "value": "GST-XA21 phosphorylated itself and MBP-XB3, but not MBP alone"}, {"measurement": "transphosphorylation assay with [gamma-32P]ATP", "setting": "[2]", "value": "GST-XA21 phosphorylated itself and MBP-XB3, but not MBP alone"}]}]}
